In patent US20100008928A1 (Takeda / Millennium, published 2010):
Where a chain is given by its changes, count along the chain named.

Columns and labels:
human nectin-2δ protein [1] = target: T1, human nectin-2δ protein (human, UniProt Q92692 32-538); assay: Cell ELISA
T1 sequence: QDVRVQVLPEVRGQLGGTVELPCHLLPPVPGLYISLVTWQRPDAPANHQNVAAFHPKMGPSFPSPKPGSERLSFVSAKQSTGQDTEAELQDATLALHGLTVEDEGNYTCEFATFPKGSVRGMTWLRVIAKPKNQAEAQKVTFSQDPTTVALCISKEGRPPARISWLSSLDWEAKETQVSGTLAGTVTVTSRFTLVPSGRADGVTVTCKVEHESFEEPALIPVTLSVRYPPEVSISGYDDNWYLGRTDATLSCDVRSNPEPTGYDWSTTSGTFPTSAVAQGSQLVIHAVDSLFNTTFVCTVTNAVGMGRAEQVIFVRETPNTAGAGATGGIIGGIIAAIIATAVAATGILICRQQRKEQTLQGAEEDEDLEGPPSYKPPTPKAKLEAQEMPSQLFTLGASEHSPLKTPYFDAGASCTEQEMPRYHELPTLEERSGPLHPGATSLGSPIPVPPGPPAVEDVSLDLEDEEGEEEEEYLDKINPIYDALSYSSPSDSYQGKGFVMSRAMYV
Description: In other words, the CHO cell line (#43-2) stably expressing nectin-2δ and the mock-CHO cell line were incubated in a 96-well tissue culture plate charged with GS-selection DMEM medium supplemented with 10% dialyzed FBS and GS supplement. After the culture supernatant of the plate where each cell line became confluent was removed by aspiration, 200 μL/well of PBS(+) supplemented with 2% FBS was added thereto and incubated on ice in the dark for an hour. After the supernatant of each well was removed by aspiration, 50 μL each/well of the hybridoma culture supernatant was added and reacted on ice in the dark for 2 hours. After this plate was washed once with PBS(+) chilled at 4° C., anti-human IgG (H+L) chain specific (GOAT) peroxidase conjugate (CALBIOCHEM) diluted to 3,000-fold with PBS(+) supplemented with 2% FBS was added by 100 μL each/well and reacted on ice in the dark for 2 hours. […] Absorbance (450 nm) of each well was measured using a plate reader (Multiskan BICHROMATIC; Thermo Electron Co.), and those showing absorbance of 0.5 or more in the nectin-2 expression CHO cell line plate and showing absorbance of less than 0.3 in the mock-CHO cell line plate were judged to be positive wells. […]

[2] = target: T2, nectin-2 Ig2 domain-deficient protein (human, UniProt Q92692 32-538); assay: FCM
T2 construct: transient in CHO-K1; also called delta-Ig2; Nectin-2ΔIg2
T2 sequence: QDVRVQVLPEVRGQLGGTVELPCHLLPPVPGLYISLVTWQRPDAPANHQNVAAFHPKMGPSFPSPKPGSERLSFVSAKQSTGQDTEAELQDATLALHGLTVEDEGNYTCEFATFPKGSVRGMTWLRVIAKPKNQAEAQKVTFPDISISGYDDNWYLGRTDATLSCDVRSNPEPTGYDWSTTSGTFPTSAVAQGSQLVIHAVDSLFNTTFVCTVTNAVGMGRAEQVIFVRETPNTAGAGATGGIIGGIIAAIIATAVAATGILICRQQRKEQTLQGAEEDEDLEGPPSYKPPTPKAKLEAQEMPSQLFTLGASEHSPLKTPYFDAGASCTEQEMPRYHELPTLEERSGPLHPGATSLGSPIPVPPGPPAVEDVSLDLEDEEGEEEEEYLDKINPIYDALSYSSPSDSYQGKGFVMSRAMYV
Description: (§1) After 200 μL of FCM buffer was added to each well and washed once by centrifugal operation, 50 μL each of Alexa488-labeled secondary antibody diluted in FCM buffer to 10 μg/mL was added to and mixed therewith, and the mixture was then reacted on ice for an hour. The Alexa488-labeled secondary antibody used was Alexa Fluor488 goat anti-human IgG (H+L) for the human antibodies and Alexa Fluor488 goat anti-rabbit IgG (H+L) (Invitrogen) for the rabbit antibody. The cells in each well were washed twice with FCM buffer and then resuspended in 250 μL of FCM buffer. Using the flow cytometer MPL500 (BECKMAN COULTER), the fluorescence intensity of stained cells was measured to determine the ratio of the median value of fluorescence intensities of the respective antibodies in the primary antibody group to the median value of fluorescence intensities in the negative control group.

[3] = target: T3, nectin-2 Ig1 domain-deficient protein (human, UniProt Q92692 32-538); assay: FCM
T3 construct: transient in CHO-K1; also called delta-Ig1; Nectin-2ΔIg1
T3 sequence: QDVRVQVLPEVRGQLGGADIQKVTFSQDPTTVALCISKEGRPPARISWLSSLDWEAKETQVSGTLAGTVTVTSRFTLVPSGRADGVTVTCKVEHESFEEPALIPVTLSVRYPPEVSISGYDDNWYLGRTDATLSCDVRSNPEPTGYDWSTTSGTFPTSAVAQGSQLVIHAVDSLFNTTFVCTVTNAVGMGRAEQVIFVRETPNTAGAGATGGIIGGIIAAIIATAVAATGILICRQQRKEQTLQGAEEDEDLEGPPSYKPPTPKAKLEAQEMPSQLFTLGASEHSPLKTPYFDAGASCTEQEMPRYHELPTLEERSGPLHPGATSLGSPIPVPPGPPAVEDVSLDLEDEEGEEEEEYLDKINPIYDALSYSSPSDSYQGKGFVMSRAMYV
Description: as §1

human nectin-2δ protein [4] = target: T1, human nectin-2δ protein; assay: FCM
Description: (§2) Then, after 200 μL of FCM buffer was added to each well and washed once by centrifugal operation, 50 μL each of Alexa488-labeled secondary antibody diluted in FCM buffer to 10 μg/mL was added thereto for suspension, and the mixture was then reacted on ice for an hour. As secondary antibodies, Alexa Fluor488 goat anti-human IgG (H+L) was used for the human antibodies and Alexa Fluor488 goat anti-rabbit IgG (H+L) (Invitrogen) was used for the rabbit antibody, respectively. Next, the cells were washed twice with FCM buffer and then resuspended in 250 μL of FCM buffer.

[5] = target: T4, cynomolgus monkey nectin-2 protein (cynomolgus monkey, UniProt Q92692 32-538 (human entry)); assay: FCM
T4 construct: transient in CHO-K1; also called maNectin-2
T4 chain: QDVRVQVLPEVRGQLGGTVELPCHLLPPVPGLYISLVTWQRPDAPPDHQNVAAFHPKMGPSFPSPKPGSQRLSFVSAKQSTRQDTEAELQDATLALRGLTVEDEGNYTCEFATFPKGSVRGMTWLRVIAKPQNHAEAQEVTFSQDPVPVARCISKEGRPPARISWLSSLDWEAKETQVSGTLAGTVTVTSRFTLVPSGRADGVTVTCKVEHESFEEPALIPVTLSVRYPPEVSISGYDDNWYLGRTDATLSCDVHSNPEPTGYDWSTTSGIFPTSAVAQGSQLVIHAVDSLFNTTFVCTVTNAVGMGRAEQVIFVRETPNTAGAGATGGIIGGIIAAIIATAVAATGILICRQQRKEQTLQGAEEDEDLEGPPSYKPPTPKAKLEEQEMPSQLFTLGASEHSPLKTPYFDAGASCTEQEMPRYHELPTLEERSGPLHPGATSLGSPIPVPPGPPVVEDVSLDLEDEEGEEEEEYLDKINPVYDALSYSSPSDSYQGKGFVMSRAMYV
Description: as §2

human nectin-2δ G113R = target: T5, human nectin-2δ G113R (human, UniProt Q92692 32-538); assay: FCM
T5 construct: transient in CHO-K1; also called Nectin-2 (G113R)
T5 sequence: T1 sequence with G82R
Description: (§3) Then, after 200 μL of FCM buffer was added to each well and washed once by centrifugal operation, 50 μL of Alexa Fluor488 goat anti-human IgG (H+L) diluted in FCM buffer to 10 μg/mL was added thereto for suspension, and the mixture was then reacted on ice for an hour. Next, the cells were washed twice with FCM buffer and resuspended in 250 μL of FCM buffer. Using flow cytometer MPL500 (BECKMAN COULTER), the fluorescence intensities of stained cells were measured, respectively.

human nectin-2δ H128R = target: T6, human nectin-2δ H128R (human, UniProt Q92692 32-538); assay: FCM
T6 construct: transient in CHO-K1; also called Nectin-2 (H128R)
T6 sequence: T1 sequence with H97R
Description: as §3

[6] = target: T7, human nectin-2δ AN77-78PD (human, UniProt Q92692 32-538); assay: FCM
T7 construct: transient in CHO-K1; also called Nectin-2 (AN77-78PD)
T7 sequence: T1 sequence with A46P, N47D
Description: as §3

EC50 (human nectin-2δ protein [1]): 1.11 nM | median fluorescence ratio [3]: 3.6 | median fluorescence ratio (human nectin-2δ protein [4]): 43 | median fluorescence ratio [5]: 14.8 | median fluorescence ratio (human nectin-2δ G113R): 38.7 | median fluorescence ratio (human nectin-2δ H128R): 51.5 | median fluorescence ratio [6]: 44.2
B1: Nec1-554-1 (antibody, human IgG1, V domains shown)
VH: EVQLVESGGGLVKPGGSLRLSCAASGFTFSSYNMNWVRQAPGKGLEWVSSISSSSSYIYYADSVKGRFTISRDNAKNSLYLQMNSLRAEDTAVYYCARDYYGSGTYYLFDYWGQGTLVTVSS
VL: EIVLTQSPDFQSVTPKEKVTITCRASQSIGSSLHWYQQKPDQSPKLLIKYASQSFSGVPSRFSGSGSGTDFTLTINSLEAEDAAAYYCHQSRSLPITFGQGTRLEIK
notes: human IgG1/k from hybridoma FERM BP-10681
binding result [2]: no binding (tested: ratio <2 = no reactivity; 6 µg/mL)
